Laboratory results published in patent US9989536B2, “Specific and high affinity binding proteins comprising modified SH3 domains of FYN kinase” (EIDGENOESSISCHE TECHNISCHE HOCHSCHULE ZURICH, priority 2006, dated 2018).
Blank lines part the entries; values can stand above or below the substance they belong to.

How the values were obtained:
[1] = test system: Normal Human Dermal Fibroblasts (NHDF); test: XTT viability of NHDF cells; type: cell-based; details: polypeptides at 750 nM, IL-17 receptor 10 nM, 24 hours
Procedure: IL-17A induces the production of IL-6 in fibroblasts in a dose-dependent manner (Yao et al. (1995) Immunity, 3, p. 811-821). […] Cell culture supernatants were taken after 24 h of stimulation and assayed for IL-6 with ELISA. […] Only viable and metabolic active cells are capable of reducing the tetrazolium salt XTT to orange-colored compounds of formazan (Scudiero, et al. (1988), Cancer Res. 48, p. 4827-4833).
400 μl of a cell suspension containing about 1×10^4 Normal Human Dermal Fibroblasts (PromoCell, NHDF-c, C12300) were distributed per well (24 well plate, Nunc or TPP) and cultured for 24 hours at 37° C. (medium: Fibroblast Growth Medium C-23010, PromoCell). […] After 24 hours incubation at 37° C. the supernatant was aspirated and the IL-6 concentration was determined by ELISA according to the manufacturer's instructions (IL-6 ELISA kit, R&D Systems). Immediately after the aspiration of the supernatant the XTT-containing medium was added (Cell Proliferation Kit II, Roche) and cell viability was determined according to the manufacturer's instructions.

IL-17A [2] = target: T1, IL-17A (Homo sapiens, UniProt Q16552); test: Acute inflammation model: human IL-17A induced KC production in mice; type: in vivo, mouse; details: C57BL/6 mice, co-injected s.c. with 3 μg human IL-17A (17 μg 2C1, 16 μg wt), 2 hours
T1 construct: purchased R&D Systems
T1 sequence (Q16552 20-155 limits assumed): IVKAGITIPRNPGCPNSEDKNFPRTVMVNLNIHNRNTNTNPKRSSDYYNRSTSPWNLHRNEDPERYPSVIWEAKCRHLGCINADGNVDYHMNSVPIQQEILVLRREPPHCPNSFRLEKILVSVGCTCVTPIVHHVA
Procedure: Human IL-17A is able to bind and stimulate the mouse IL-17 receptor, leading to an elevation and subsequent secretion of mouse KC (CXCL1) chemokine (Allan B. et al. (2007) WO2007/070750 of Eli Lilly, US). The observed KC levels 2 hours after s.c. IL-17A injection (3 μg) were between […] in the serum, compared to around […] KC basal levels.
The blood samples were centrifuged for 10 min at 9500×g and the serum was stored at −20° until ELISA analysis was performed. KC levels in serum were determined using the commercially available Quantikine mouse CLCL1/KC kit (R&D Systems).
After 20-60 minutes, 3 μg/mouse of human IL-17A (R&D Systems) was injected s.c. and 2 hours after IL-17A injection, blood samples were taken from the vena saphena with the capillary Microvette CB 300 (Sarstedt). The blood samples were centrifuged for 10 min at 9500×g and the serum was stored at −20° until ELISA analysis was performed. KC levels in serum were determined using the commercially available Quantikine mouse CLCL1/KC kit (R&D Systems).

IL-17A [3] = target: T1, IL-17A; test: IL-17A inhibition cell assay (IL-6 production in NHDF, 50 ng/ml IL-17A); type: cell-based; details: NHDF cells in presence of IL-17A
[4] = test system: F9 murine teratocarcinoma; test: Quantitative biodistribution of 125I-labeled protein in tumor-bearing mice; type: in vivo; details: i.v., 24 h
[5] = Humira Drug Approval Package; cited from earlier work

Substance: IL-17A receptor-Fc chimera: commercially available human IL-17A receptor Fc chimera (R&D Systems)
- cell viability (XTT assay) [1]: all cells were viable

- inhibition of IL-6 production (IL-17A [3]): no inhibition of IL-6 production
Substance: Fyn SH3 wt: wild type SH3 domain of Fyn kinase, SEQ ID NO: 1 (SEQ ID NO: 339 in Example 5)
- KC levels in mouse serum (IL-17A [2]): as high as in the group receiving IL-17A only
- accumulation in the tumor [4]: no enrichment

Substance: adalimumab
- half-life of other human antibodies in mice [5]: 102 to 193 h
